This data set concerns the molecule itself. Nature of the data set: AUC.

B1: E. coli cyclopropane fatty acid (CFA) synthase, wild type (from His6-TEV-CFA synthase) (enzyme, UniProt P0A9H7 1-382, looked up)
chain: MSSSCIEEVSVPDDNWYRIANELLSRAGIAINGSAPADIRVKNPDFFKRVLQEGSLGLGESYMDGWWECDRLDMFFSKVLRAGLENQLPHHFKDTLRIAGARLFNLQSKKRAWIVGKEHYDLGNDLFSRMLDPFMQYSCAYWKDADNLESAQQAKLKMICEKLQLKPGMRVLDIGCGWGGLAHYMASNYDVSVVGVTISAEQQKMAQERCEGLDVTILLQDYRDLNDQFDRIVSVGMFEHVGPKNYDTYFAVVDRNLKPEGIFLLHTIGSKKTDLNVDPWINKYIFPNGCLPSVRQIAQSSEPHFVMEDWHNFGADYDTTLMAWYERFLAAWPEIADNYSERFKRMFTYYLNACAGAFRARDIQLWQVVFSRGVENGLRVAR
For B1, the “stoichiometry N” value stood at 2.

In general, stoichiometry N refers to a count of units in the complex or per binding partner.

(Values after publication PMC6125206 (Structure (London, England : 1993), 2018).)
